B1: PEX5 peptide 110-125 (Peroxisomal targeting signal 1 receptor), 16-mer library wild type / PEX14 Pex14 (PEX14 PEX14, residues 16-84) (parent complex)
chain 1: ADLALSENWAQEFLAA
chain 2: TPGSENVLPREPLIATAVKFLQNSRVRQSPLATRRAFLKKKGLTDEEIDMAFQQSGTAADEPSSLGPAT

Variants of: B1
Test: proteomic peptide phage display deep mutational scan (ProP-PD DMS): M13 P8 16-mer library selected against immobilised GST-tagged bait for four days (rounds), NGS of the eluted pools per day and pseudo-replica; bait immobilised on MaxiSorp plates (10 µg), library pre-cleared on GST, 2 h binding at 4 °C, five washes; one round per day, days 1-4; value from days 2 and 3

Variant	screen value
chain 1 ADLALSEIWAQEFLAA [chain 1 N8I]	0.0016 average fractional NGS count over selection days 2 and 3 (reads of this peptide / all reads for the bait, averaged over …
chain 1 ADLALSEDWAQEFLAA [chain 1 N8D]	0.00107 average fractional NGS count over selection days 2 and 3 (reads of this peptide / all reads for the bait, averaged over …
chain 1 ADLALSEGWAQEFLAA [chain 1 N8G]	0.00135 average fractional NGS count over selection days 2 and 3 (reads of this peptide / all reads for the bait, averaged over …
chain 1 ADLALSEEWAQEFLAA [chain 1 N8E]	0.00099 average fractional NGS count over selection days 2 and 3 (reads of this peptide / all reads for the bait, averaged over …
chain 1 ADLALSELWAQEFLAA [chain 1 N8L]	0.000366 average fractional NGS count over selection days 2 and 3 (reads of this peptide / all reads for the bait, averaged over …
chain 1 ADLALSEPWAQEFLAA [chain 1 N8P]	0.000567 average fractional NGS count over selection days 2 and 3 (reads of this peptide / all reads for the bait, averaged over …
chain 1 ADLALSEFWAQEFLAA [chain 1 N8F]	0.00191 average fractional NGS count over selection days 2 and 3 (reads of this peptide / all reads for the bait, averaged over …
chain 1 ADLILSENWAQEFLAA [chain 1 A4I]	0.000694 average fractional NGS count over selection days 2 and 3 (reads of this peptide / all reads for the bait, averaged over …
chain 1 ADLLLSENWAQEFLAA [chain 1 A4L]	0.000672 average fractional NGS count over selection days 2 and 3 (reads of this peptide / all reads for the bait, averaged over …
chain 1 ADLHLSENWAQEFLAA [chain 1 A4H]	0.00244 average fractional NGS count over selection days 2 and 3 (reads of this peptide / all reads for the bait, averaged over …
chain 1 ADLVLSENWAQEFLAA [chain 1 A4V]	0.000411 average fractional NGS count over selection days 2 and 3 (reads of this peptide / all reads for the bait, averaged over …
chain 1 ADLTLSENWAQEFLAA [chain 1 A4T]	0.00418 average fractional NGS count over selection days 2 and 3 (reads of this peptide / all reads for the bait, averaged over …
chain 1 ADLNLSENWAQEFLAA [chain 1 A4N]	0.000393 average fractional NGS count over selection days 2 and 3 (reads of this peptide / all reads for the bait, averaged over …
chain 1 ADLPLSENWAQEFLAA [chain 1 A4P]	0.00132 average fractional NGS count over selection days 2 and 3 (reads of this peptide / all reads for the bait, averaged over …
chain 1 ADLALRENWAQEFLAA [chain 1 S6R]	0.00161 average fractional NGS count over selection days 2 and 3 (reads of this peptide / all reads for the bait, averaged over …
chain 1 ADLALLENWAQEFLAA [chain 1 S6L]	0.00108 average fractional NGS count over selection days 2 and 3 (reads of this peptide / all reads for the bait, averaged over …
chain 1 ADLALGENWAQEFLAA [chain 1 S6G]	0.000749 average fractional NGS count over selection days 2 and 3 (reads of this peptide / all reads for the bait, averaged over …
chain 1 ADLALEENWAQEFLAA [chain 1 S6E]	0.00164 average fractional NGS count over selection days 2 and 3 (reads of this peptide / all reads for the bait, averaged over …
chain 1 ADLALNENWAQEFLAA [chain 1 S6N]	0.000624 average fractional NGS count over selection days 2 and 3 (reads of this peptide / all reads for the bait, averaged over …

Variant	screen value
chain 1 ADLALSENWAQEFLWA [chain 1 A15W]	0.00189 average fractional NGS count over selection days 2 and 3 (reads of this peptide / all reads for the bait, averaged over …
chain 1 ADLALSENWAQEFLLA [chain 1 A15L]	0.00105 average fractional NGS count over selection days 2 and 3 (reads of this peptide / all reads for the bait, averaged over …
chain 1 ADLALSENWAQEFLVA [chain 1 A15V]	0.000924 average fractional NGS count over selection days 2 and 3 (reads of this peptide / all reads for the bait, averaged over …
chain 1 ADLALSENWAQEFLHA [chain 1 A15H]	0.000537 average fractional NGS count over selection days 2 and 3 (reads of this peptide / all reads for the bait, averaged over …
chain 1 ADLALSENWAQEFLPA [chain 1 A15P]	0.00041 average fractional NGS count over selection days 2 and 3 (reads of this peptide / all reads for the bait, averaged over …
chain 1 ADLALSENWAQEFLMA [chain 1 A15M]	0.000398 average fractional NGS count over selection days 2 and 3 (reads of this peptide / all reads for the bait, averaged over …
chain 1 ADLALSENWAQEFLFA [chain 1 A15F]	0.000391 average fractional NGS count over selection days 2 and 3 (reads of this peptide / all reads for the bait, averaged over …
chain 1 ADLALSENWAQEILAA [chain 1 F13I]	0.000603 average fractional NGS count over selection days 2 and 3 (reads of this peptide / all reads for the bait, averaged over …
chain 1 ADLALSENWAQERLAA [chain 1 F13R]	0.000386 average fractional NGS count over selection days 2 and 3 (reads of this peptide / all reads for the bait, averaged over …
chain 1 ADLALSENWAQEWLAA [chain 1 F13W]	0.000735 average fractional NGS count over selection days 2 and 3 (reads of this peptide / all reads for the bait, averaged over …
chain 1 ADLALSENWAQEHLAA [chain 1 F13H]	0.00342 average fractional NGS count over selection days 2 and 3 (reads of this peptide / all reads for the bait, averaged over …
chain 1 ADLALSENWAQEYLAA [chain 1 F13Y]	0.00124 average fractional NGS count over selection days 2 and 3 (reads of this peptide / all reads for the bait, averaged over …
chain 1 ADLAKSENWAQEFLAA [chain 1 L5K]	0.000511 average fractional NGS count over selection days 2 and 3 (reads of this peptide / all reads for the bait, averaged over …
chain 1 ADLAQSENWAQEFLAA [chain 1 L5Q]	0.000395 average fractional NGS count over selection days 2 and 3 (reads of this peptide / all reads for the bait, averaged over …
chain 1 ADLAYSENWAQEFLAA [chain 1 L5Y]	0.00132 average fractional NGS count over selection days 2 and 3 (reads of this peptide / all reads for the bait, averaged over …
chain 1 ADLAMSENWAQEFLAA [chain 1 L5M]	0.000827 average fractional NGS count over selection days 2 and 3 (reads of this peptide / all reads for the bait, averaged over …
chain 1 ADLAPSENWAQEFLAA [chain 1 L5P]	0.000702 average fractional NGS count over selection days 2 and 3 (reads of this peptide / all reads for the bait, averaged over …
chain 1 ADLAASENWAQEFLAA [chain 1 L5A]	0.00106 average fractional NGS count over selection days 2 and 3 (reads of this peptide / all reads for the bait, averaged over …
chain 1 ADLATSENWAQEFLAA [chain 1 L5T]	0.000402 average fractional NGS count over selection days 2 and 3 (reads of this peptide / all reads for the bait, averaged over …

Variant	screen value
chain 1 EDLALSENWAQEFLAA [chain 1 A1E]	0.00113 average fractional NGS count over selection days 2 and 3 (reads of this peptide / all reads for the bait, averaged over …
chain 1 GDLALSENWAQEFLAA [chain 1 A1G]	0.000525 average fractional NGS count over selection days 2 and 3 (reads of this peptide / all reads for the bait, averaged over …
chain 1 FDLALSENWAQEFLAA [chain 1 A1F]	0.00127 average fractional NGS count over selection days 2 and 3 (reads of this peptide / all reads for the bait, averaged over …
chain 1 YDLALSENWAQEFLAA [chain 1 A1Y]	0.000485 average fractional NGS count over selection days 2 and 3 (reads of this peptide / all reads for the bait, averaged over …
chain 1 NDLALSENWAQEFLAA [chain 1 A1N]	0.00108 average fractional NGS count over selection days 2 and 3 (reads of this peptide / all reads for the bait, averaged over …
chain 1 TDLALSENWAQEFLAA [chain 1 A1T]	0.00109 average fractional NGS count over selection days 2 and 3 (reads of this peptide / all reads for the bait, averaged over …
chain 1 PDLALSENWAQEFLAA [chain 1 A1P]	0.000566 average fractional NGS count over selection days 2 and 3 (reads of this peptide / all reads for the bait, averaged over …
chain 1 ADLALSENWEQEFLAA [chain 1 A10E]	0.000658 average fractional NGS count over selection days 2 and 3 (reads of this peptide / all reads for the bait, averaged over …
chain 1 ADLALSENWHQEFLAA [chain 1 A10H]	0.013 average fractional NGS count over selection days 2 and 3 (reads of this peptide / all reads for the bait, averaged over …
chain 1 ADLALSENWGQEFLAA [chain 1 A10G]	0.00143 average fractional NGS count over selection days 2 and 3 (reads of this peptide / all reads for the bait, averaged over …
chain 1 ADLALSENWTQEFLAA [chain 1 A10T]	0.000469 average fractional NGS count over selection days 2 and 3 (reads of this peptide / all reads for the bait, averaged over …
chain 1 ADLALSENWRQEFLAA [chain 1 A10R]	0.000397 average fractional NGS count over selection days 2 and 3 (reads of this peptide / all reads for the bait, averaged over …
chain 1 ADLALSENWAQEFFAA [chain 1 L14F]	0.00346 average fractional NGS count over selection days 2 and 3 (reads of this peptide / all reads for the bait, averaged over …
chain 1 ADLALSENWAQEFSAA [chain 1 L14S]	0.00136 average fractional NGS count over selection days 2 and 3 (reads of this peptide / all reads for the bait, averaged over …
chain 1 ADLALSENWAQEFRAA [chain 1 L14R]	0.000944 average fractional NGS count over selection days 2 and 3 (reads of this peptide / all reads for the bait, averaged over …
chain 1 ADLALSENWAQEFDAA [chain 1 L14D]	0.000896 average fractional NGS count over selection days 2 and 3 (reads of this peptide / all reads for the bait, averaged over …
chain 1 ADLALSENWAQEFTAA [chain 1 L14T]	0.00188 average fractional NGS count over selection days 2 and 3 (reads of this peptide / all reads for the bait, averaged over …
chain 1 ADLALSENWAQEFQAA [chain 1 L14Q]	0.000996 average fractional NGS count over selection days 2 and 3 (reads of this peptide / all reads for the bait, averaged over …

Reference: publication PMC12102759 (2025)
